Measurements taken from publication PMC5385928 (Nature structural & molecular biology, 2016).

Columns and labels:
[1] = target: DNA damage-binding protein 1 (DDB1), full length human (human, UniProt Q16531 1-1140); assay: crystal structure
[2] = target: Uracil-DNA glycosylase UNG2, catalytic domain (residues 83-304) (human, UniProt P13051-2 83-304); assay: crystal structure
Chain of Uracil-DNA glycosylase UNG2, catalytic domain (residues 83-304) (P13051 92-313): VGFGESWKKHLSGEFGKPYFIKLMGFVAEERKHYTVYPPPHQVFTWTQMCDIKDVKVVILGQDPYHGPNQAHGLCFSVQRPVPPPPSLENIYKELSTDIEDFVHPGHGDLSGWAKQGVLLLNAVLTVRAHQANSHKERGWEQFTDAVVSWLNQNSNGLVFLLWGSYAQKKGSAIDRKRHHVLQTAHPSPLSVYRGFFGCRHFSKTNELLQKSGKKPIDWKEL

Chain of DNA damage-binding protein 1 (DDB1), full length human (Q16531 whole entry, the tested form may be a part): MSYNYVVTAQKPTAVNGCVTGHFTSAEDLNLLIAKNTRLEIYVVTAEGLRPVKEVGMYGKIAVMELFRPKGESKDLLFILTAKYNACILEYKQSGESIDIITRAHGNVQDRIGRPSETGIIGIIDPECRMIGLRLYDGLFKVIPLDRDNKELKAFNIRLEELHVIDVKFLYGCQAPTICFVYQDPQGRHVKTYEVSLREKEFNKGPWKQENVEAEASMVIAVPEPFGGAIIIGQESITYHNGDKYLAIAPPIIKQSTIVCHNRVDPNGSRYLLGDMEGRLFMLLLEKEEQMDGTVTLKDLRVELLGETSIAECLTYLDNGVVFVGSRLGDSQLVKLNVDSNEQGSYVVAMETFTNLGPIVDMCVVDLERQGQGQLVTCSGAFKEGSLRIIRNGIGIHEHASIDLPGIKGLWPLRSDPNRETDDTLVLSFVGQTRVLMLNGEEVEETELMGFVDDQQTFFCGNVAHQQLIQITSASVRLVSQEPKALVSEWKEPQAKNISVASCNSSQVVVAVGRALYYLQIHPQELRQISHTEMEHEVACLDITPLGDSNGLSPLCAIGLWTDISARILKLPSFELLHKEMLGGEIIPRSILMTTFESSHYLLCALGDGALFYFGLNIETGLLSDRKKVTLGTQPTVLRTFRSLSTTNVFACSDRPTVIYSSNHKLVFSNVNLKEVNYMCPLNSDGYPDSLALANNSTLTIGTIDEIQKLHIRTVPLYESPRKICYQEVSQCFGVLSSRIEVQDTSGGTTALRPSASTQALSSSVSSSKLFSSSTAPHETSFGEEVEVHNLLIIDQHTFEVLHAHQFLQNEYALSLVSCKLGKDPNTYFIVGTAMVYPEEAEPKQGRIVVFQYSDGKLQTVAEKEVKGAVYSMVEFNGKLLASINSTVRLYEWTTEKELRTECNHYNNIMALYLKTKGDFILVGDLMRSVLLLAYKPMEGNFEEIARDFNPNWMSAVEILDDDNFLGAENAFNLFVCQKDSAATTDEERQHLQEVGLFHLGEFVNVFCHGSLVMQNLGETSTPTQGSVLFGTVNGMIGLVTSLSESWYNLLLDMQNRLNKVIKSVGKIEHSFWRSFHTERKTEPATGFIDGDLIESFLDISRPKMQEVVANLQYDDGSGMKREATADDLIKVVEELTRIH

B1: DDB1- and CUL4A-associated factor 1 (DCAF1), C-terminal region including the WD40 domain (residues 1046-1396) (domain or fragment)
chain: not shown
Q: Does B1 bind [1]?
A: binds

B2: HIV-1 (NL4-3 clone) Vpr with H78C mutation (natural protein, UniProt P12520 1-96, looked up)
chain: MEQAPEDQGPQREPYNEWTLELLEELKSEAVRHFPRIWLHNLGQHIYETYGDTWAGVEAIIRILQQLLFIHFRIGCRCSRIGVTRQRRARNGASRS
Q: Does B2 bind [2]?
A: binds
